Laboratory results taken from patent publication US5786145A, “Oligonucleotide competitors for binding of HIV RRE to REV protein and assays for screening inhibitors of this binding” (Medical Research Council, priority 1995, dated 1998).
“Also recorded” adds a separate entry of the source. Like-named read-outs stand apart in the source and are kept apart here.

How the values were obtained:
rev protein [1] = assay: Competition filter binding against labelled RRE RNA (FIG. 11); parameters: species or system HIV-1; conditions: 17 nM rev, 0.5 pM labelled RRE RNA; read-out: D1/2, competitor concentration reducing rev binding to labelled RRE RNA by 50%
Protocol: Unlabelled RRE RNA was an effective competitor and reduced rev binding to the labelled RRE RNA by 50% of the initial value with a D1/2 =2 nM. The short R33 transcript was also an effective competitor and reduced rev binding with D1/2 =8 nM. The mutations in the "bubble" either reduce or abolish specific rev binding.
Filter binding reactions contained 17 nM rev, 0.5 pM labelled RRE RNA and between 0-100 nM unlabelled competitor RNA. Empty squares, RRE RNA competitor; filled circles, R33 RNA competitor; filled triangles, R34 RNA competitor; empty triangles, R35 RNA competitor.

rev protein [2] = assay: Saturation filter binding of rev to labelled RNA transcripts; parameters: species or system HIV-1; conditions: for rev binding, result in words: saturation filter binding, 0 to 10 nM rev
Protocol: Rev protein was expressed and purified as described (33) or further purified by chromatography on Heparin-Sepharose. Rev was applied to Heparin columns in a buffer containing 200 mM NaCl/50mM Tris-HCl pH8.0/1 mM DTT/0.1 mM EDTA 0.1% Triton X-100 and eluted in buffer containing 2M NaCl. After gel filtration on Superose 6 (prep grade) columns equilibrated with 200 mM NaCl/50 mM Tris-HCl pH8.0/1 mM DTT/0.1 mM EDTA, the rev protein appeared homogeneous on SDS-polyacrylamide gels and free of RNA contaminants. Rev concentrations were determined by amino acid analysis of the purified protein.
DNA inserts containing RRE-related sequences were cloned between the EcoRI (5') and HindIII (3') sites of pGEM 1, either by cloning PCR products or by cloning annealed pairs of synthetic oligonucleotides. RNA transcripts for binding experiments were prepared by transcription of HindIII cut plasmids using T7 RNA polymerase and purified by gel electrophoresis. These transcripts carry a 5' extension of 15 nucleotides contributed by the vector and an extra A residue at the 3' end from the HindIII site, as described above.
For filter binding assays, each reaction mixture contained 20 pg of uniformly labelled RNA probe (approximately 500 cpm/pg RNA), […] sonicated salmon sperm DNA, […] yeast tRNA, 40 units RNasin (Promega) in […] TK buffer (43 mM Tris-HCl pH8.0, 50 mM KCl). Incubation was at 4° C. for 15 minutes in the presence of 0 to 10 nM purified rev protein. To measure binding, each reaction mixture was applied under gentle vacuum to a 0.45 um Millipore filter which had been pre-wetted with TK buffer. The filters were washed with […] TK buffer, dried, and radioactivity counted by liquid scintillation.
Filter binding assays contained 20 pg uniformly labelled RNA probe (500 dpm per pg RNA), 1 μg salmon sperm DNA, 0.45 μg yeast tRNA and 40 units RNasin (Promega) in 500 μl buffer containing 43 mM Tris-HCl pH 8.0, 50 mM KCl. Mutations in the purine-rich "bubble" sequence (numbered as shown in FIG. 2) were introduced into the R33 stem-loop structure (FIG. 3d) by site-directed mutagenesis.

HIV-1 Rev [3] = target: T1, HIV-1 Rev (Human immunodeficiency virus 1, UniProt P04618 P04618:1-116); assay: filter; conditions: tags: none stated, heparin-Sepharose and Superose 6 purified, chain copies: oligomer (tetramer likely; about 4 per RBC6, 6-8 per full-length RRE at 50 mM KCl) stated, label: 32P uniform
HIV-1 Rev [4] = target: T1, HIV-1 Rev; assay: filter; normal rev binding; conditions: tags: none stated; heparin-Sepharose and Superose 6 purified; chain copies: oligomer (tetramer likely; about 4 per RBC6, 6-8 per full-length RRE at 50 mM KCl) stated; label: 32P uniform; stem-loop with purine-rich bubble
HIV-1 Rev [5] = target: T1, HIV-1 Rev; assay: filter; 50 mM KCl, 4 C; 21% bound at 10 nM rev; conditions: tags: none stated; heparin-Sepharose and Superose 6 purified; chain copies: oligomer (tetramer likely; about 4 per RBC6, 6-8 per full-length RRE at 50 mM KCl) stated; label: 32P uniform
HIV-1 Rev [6] = target: T1, HIV-1 Rev; assay: filter; 50 mM KCl, 4 C; 40% bound at 10 nM rev; conditions: tags: none stated, heparin-Sepharose and Superose 6 purified, chain copies: oligomer (tetramer likely; about 4 per RBC6, 6-8 per full-length RRE at 50 mM KCl) stated, label: 32P uniform
HIV-1 Rev [7] = target: T1, HIV-1 Rev; assay: filter; 50 mM KCl, 4 C; 18% bound at 10 nM rev; conditions: tags: none stated; heparin-Sepharose and Superose 6 purified; chain copies: oligomer (tetramer likely; about 4 per RBC6, 6-8 per full-length RRE at 50 mM KCl) stated; label: 32P uniform
HIV-1 Rev [8] = target: T1, HIV-1 Rev; assay: filter; 50 mM KCl, 4 C; 20% bound at 10 nM rev; conditions: tags: none stated; heparin-Sepharose and Superose 6 purified; chain copies: oligomer (tetramer likely; about 4 per RBC6, 6-8 per full-length RRE at 50 mM KCl) stated; label: 32P uniform
HIV-1 Rev [9] = target: T1, HIV-1 Rev; assay: competition; D1/2 vs labelled RRE RNA, 17 nM rev; conditions: tags: none stated, heparin-Sepharose and Superose 6 purified, chain copies: oligomer (tetramer likely; about 4 per RBC6, 6-8 per full-length RRE at 50 mM KCl) stated, label: 32P uniform
HIV-1 Rev [10] = target: T1, HIV-1 Rev; assay: filter; 50 mM KCl, 4 C; 15% bound at 10 nM rev; conditions: tags: none stated; heparin-Sepharose and Superose 6 purified; chain copies: oligomer (tetramer likely; about 4 per RBC6, 6-8 per full-length RRE at 50 mM KCl) stated; label: 32P uniform
HIV-1 Rev [11] = target: T1, HIV-1 Rev; assay: filter; 50 mM KCl, 4 C; 17% bound at 10 nM rev; conditions: tags: none stated; heparin-Sepharose and Superose 6 purified; chain copies: oligomer (tetramer likely; about 4 per RBC6, 6-8 per full-length RRE at 50 mM KCl) stated; label: 32P uniform
HIV-1 Rev [12] = target: T1, HIV-1 Rev; assay: filter; same affinity as full-length RRE; conditions: tags: none stated; heparin-Sepharose and Superose 6 purified; chain copies: oligomer (tetramer likely; about 4 per RBC6, 6-8 per full-length RRE at 50 mM KCl) stated; label: 32P uniform; stem-loop with purine-rich bubble
HIV-1 Rev [13] = target: T1, HIV-1 Rev; assay: competition; competes with same affinity as RBC6; conditions: tags: none stated; heparin-Sepharose and Superose 6 purified; chain copies: oligomer (tetramer likely; about 4 per RBC6, 6-8 per full-length RRE at 50 mM KCl) stated; RNA three-way junction stabilising bubble (all strands RNA)
HIV-1 Rev [14] = target: T1, HIV-1 Rev; assay: filter; bubble not formed; conditions: tags: none stated; heparin-Sepharose and Superose 6 purified; chain copies: oligomer (tetramer likely; about 4 per RBC6, 6-8 per full-length RRE at 50 mM KCl) stated; label: 32P uniform
HIV-1 Rev [15] = target: T1, HIV-1 Rev; assay: filter; shortest T7 transcript with full affinity; conditions: tags: none stated; heparin-Sepharose and Superose 6 purified; chain copies: oligomer (tetramer likely; about 4 per RBC6, 6-8 per full-length RRE at 50 mM KCl) stated; label: 32P uniform; stem-loop with purine-rich bubble
HIV-1 Rev [16] = target: T1, HIV-1 Rev; assay: filter; 50 mM KCl, 4 C; 35% bound at 10 nM rev; conditions: tags: none stated; heparin-Sepharose and Superose 6 purified; chain copies: oligomer (tetramer likely; about 4 per RBC6, 6-8 per full-length RRE at 50 mM KCl) stated; label: 32P uniform; stem-loop with altered bubble
[17] = Table I, filter binding, 20 pg labelled RNA probe, 50 mM KCl, read-out: Kd
[18] = stem-loop with purine-rich bubble on 9-bp stem

R33: stem-loop of residues 33 to 63, A56 deleted, inserted on top of a stem containing 9 base pairs; wild-type bubble (GGGAGACCGGAAUUCUGGGCGCAGUGUCAUUGACGCUGCGGUACAGAAUUCCGGCA; chemistry not given here)
IC50 (rev protein [1]): 8 nM | % RNA bound (10 nM rev) (rev protein [2]; Table I, 50 mM KCl): 40% | Kd (rev protein [2]; [17]): 3 nM | rev binding, result in words (rev protein [2]): Normal rev binding

R34 (GGGAGACCGGAAUUCUGCGCAGUGUCAUUGACGCUGCGGUACAGAAUUCCGGC; chemistry not given here)
IC50 (rev protein [1]): > 250 nM | % RNA bound (10 nM rev) (rev protein [2]; Table I, 50 mM KCl): 3% | rev binding, result in words (rev protein [2]): abolished specific rev binding; also recorded: does not bind rev with measurable affinity

R35 (GGGAGACCGGAAUUCUGGCGCAGUGUCAUUGACGCUGCGGUACAGAAUUCCGGCA; chemistry not given here)
IC50 (rev protein [1]): 16 nM | % RNA bound (10 nM rev) (rev protein [2]; Table I, 50 mM KCl): 35% | Kd (rev protein [2]; [17]): 4 nM | Kd (rev protein [2]; saturation filter binding of T7 transcripts, read-out: Kd for rev binding): 4 nM | rev binding, result in words (rev protein [2]): reduced rev binding slightly

GGGAGACCGGAAUUCUGGGCGCAGUGUCAUUGACGCUGCGGUACAGGCA (ssRNA) [R22 (A56 deleted)]
Kd (HIV-1 Rev [3]; stem-loop with purine-rich bubble): 1.73 nM

GGGAGACCGGAAUUCUGGGCGCAGCGUCAUUGACACUGCGGUACAGGCA (ssRNA) [R30 (upper stem antisense)]
binding result (HIV-1 Rev [4]): binds

B1: R55 (ssRNA)
RNA: GGGAGACCGGAAUUCUAGGCGCAGUGUCAUUGACGCUGCGGUAUAGAAUUCCGGCA
modifications: [-]
Kd (HIV-1 Rev [5]): 4 nM

B2: R57 (ssRNA)
RNA: GGGAGACCGGAAUUCUGGGCACAGUGUCAUUGACGCUGUGGUACAGAAUUCCGGCA
modifications: [-]
Kd (HIV-1 Rev [6]): 3 nM

B3: R42 (ssRNA)
RNA: GGGAGACCGGAAUUCUGGGCCCAGUGUCAUUGACGCUGGGGUACAGAAUUCCGGCA
modifications: [none]
Kd (HIV-1 Rev [7]): 8 nM

B4: R52 (ssRNA)
RNA: GGGAGACCGGAAUUCUGGGCGCAGUGUCAUUGACGCUGCGGCACAGAAUUCCGGCA
modifications: [-]
Kd (HIV-1 Rev [7]): 5 nM

B5: R50 (ssRNA)
RNA: GGGAGACCGGAAUUCUGGACGCAGUGUCAUUGACGCUGCGGUACAGAAUUCCGGCA
modifications: [-]
Kd (HIV-1 Rev [8]): 5 nM

B6: R33 (ssRNA)
RNA: GGGAGACCGGAAUUCUGGGCGCAGUGUCAUUGACGCUGCGGUACAGAAUUCCGGCA
IC50 (HIV-1 Rev [9]; [18]): 8 nM | Kd (HIV-1 Rev [6]; [18]): 3 nM

B7: R39 (ssRNA)
RNA: GGGAGACCGGAAUUCAGGGCGCAGUGUCAUUGACGCUGCGGUACUGAAUUCCGGCA
modifications: [-]
Kd (HIV-1 Rev [10]): 8 nM

B8: R54 (ssRNA)
RNA: GGGAGACCGGAAUUCCGGGCGCAGUGUCAUUGACGCUGCGGUACGGAAUUCCGGCA
modifications: [-]
Kd (HIV-1 Rev [11]): 6 nM

B9: RRE fragment 26-92 (ssRNA)
RNA: GGGAGACCGGAAUUCAGCACUAUGGGCGCAGUGUCAUUGACGCUGACGGUACAGGCCAGACAAUUAUUGUCUGGUAUAGUGCA
binding result (HIV-1 Rev [12]): binds

B10: TWJ-U (structured_DNA)
DNA 1: GCACUAUGGGCGCAGC
DNA 2: GCUGCGGUACAGGCCAGA
DNA 3: UCUGGUAUAGUGC
binding result (HIV-1 Rev [13]): binds

B11: RRE fragment 1-96 (ssRNA)
RNA: GGGAGACCGGAAUUCCCUUGGGUUCUUGGGAGCAGCAGGAAGCACUAUGGGCGCAGUGUCAUUGACGCUGACGGUACAGGCCAGACAAUUAUUGUCUGGUAUAGUGCAACA
binding result (HIV-1 Rev [12]): binds

B12: RRE fragment 26-72 (ssRNA)
RNA: GGGAGACCGGAAUUCAGCACUAGGGCGCAGUGUCAUUGACGCUGAGGGUACAGGCCAGACAAUUAUA
binding result (HIV-1 Rev [14]): no binding

GGGAGACCGGAAUUCUGGGCGCUUCGGCGGUACAGA (ssRNA) [R38 (upper stem-loop replaced by CUUCGG)]
Kd (HIV-1 Rev [3]; hairpin with purine-rich bubble): 1.73 nM

GGGAGACCGGAAUUCUGGGCGCAGUGUCAUUGACGCUGACGGUACAGGCA (ssRNA) [R19 (RRE 33-66)]
Kd (HIV-1 Rev [15]): 1.73 nM

GGGAGACCGGAAUUCUGGGCGCAGUGUCAAUGACGCUGACGGUACAGGCA (ssRNA) [R29 (apex loop antisense)]
binding result (HIV-1 Rev [4]): binds

B13: R35 (dG35) (ssRNA)
RNA: GGGAGACCGGAAUUCUGGCGCAGUGUCAUUGACGCUGCGGUACAGAAUUCCGGCA
IC50 (HIV-1 Rev [9]; stem-loop with altered bubble): 16 nM | Kd (HIV-1 Rev [16]): 4 nM
